The values that follow come from patent US20090130697A1 (COLORADO STATE UNIVERSITY RESEARCH FOUNDATION, published 2009).

This experiment deals with FLS:Trg:EnvZ:AHK4 hybrid transmembrane histidine kinase (FLS2 plant leader, Trg extracellular domain, EnvZ, …). In words: cell-based or functional assay.

B1: SS-TNT, computationally designed TNT receptor (sensor protein): PEX secretory sequence fused to the periplasmic ribose binding protein engineered to bind TNT (designed binder)
chain: MERPFGCFFILLLISYTVVAKDTIALVVSTLNSPFLVSLKDGAQKEADKLGYNLVVLDSQNNPAKELANVQDLTVRGTKILLINPTDSDAVGNAVKMANQANIPVITLSSQATKGEVVSHIASDNVLGGKIAGDYIAKKAGEGAKVIELQGIAGTSSARESGEGFQQAVAAHKFNVLASQPADIDRIKGLNVMQNLLTAHPDVQAVFAQFDEMALGALRALQTAGKSDVMVVGFSGTPDGEKAVNDGKLAATIASLPDQIGAKGVETADKVLKGEKVQAKYPVDLKLVVKQDYKDDDDK
In the case of B1, the “GUS expression from the ARR5 promoter in transgenic Arabidopsis in response to TNT” value is about 2 fold.
